# Laboratory results taken from the supplement of paper PMC7125110.
# ± gives the standard error. This sample holds only a part of the variants without activity.
# B1: glmS ribozyme (parent)
# chain: AUAAAAGCGCCAGAACUACAGAAAUGUAGUUGACGAGGAGGAGGUUUAUCGAAUUUUCGGCGGAUGCCUCCAAA
# Variants of: B1
# Assay: self-cleavage kobs at 2500 uM GlcN6P; higher = faster cleavage; RNA array
# Conditions: with glucosamine-6-phosphate
# Method in brief: (§1)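 Glucosamine-6-phosphate in HEPES/KCl/Mg(OAc)2 buffer, at 40 μM to 10 mM, was flowed over barcoded ribozyme variants transcribed in situ by E. coli RNA polymerase on sequenced MiSeq chips. Tracking was through a hybridised Cy3 probe at 37 °C. kobs, kcat and KM came from exponential decay fits and weighted Michaelis–Menten fits of normalised per-tile medians.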
row,Variant,self-cleavage kobs at 2500 uM GlcN6P
1,A14U U65A U69C,0.000173 ± 4.9e-05 s⁻¹
2,A39G A52U C58A,< 1e-05 s⁻¹
3,A36U G38A U47C,< 1e-05 s⁻¹
4,A15C G37A U65G,8.59e-05 ± 2.6e-05 s⁻¹
5,U31G G63C,< 1e-05 s⁻¹
6,U31C A42U A52C C71A,< 1e-05 s⁻¹
7,A6G G44A A52U C61U G62A C70G C71U,< 1e-05 s⁻¹
8,C8U G13A G51A,< 1e-05 s⁻¹
9,A12G A14U G41A G43A C50U G51A,< 1e-05 s⁻¹
10,C10G G43U A64G,< 1e-05 s⁻¹
11,G38C U49G U55A U65G,< 1e-05 s⁻¹
12,A14C G35A A52G,< 1e-05 s⁻¹
13,G32C C50U U69A,0.000245 ± 8.3e-05 s⁻¹
14,G38U A48G U55C C67G,< 1e-05 s⁻¹
15,C34G G35U G43U,< 1e-05 s⁻¹
16,C50U G51C A53U,< 1e-05 s⁻¹
17,A14G G38A G40A,< 1e-05 s⁻¹
18,G35C A53U G60U C61U,< 1e-05 s⁻¹
19,C34U G35U G62C,< 1e-05 s⁻¹
20,A6G G7U C70G,5.26e-05 ± 2.1e-05 s⁻¹
21,A36C U49A U56A,< 1e-05 s⁻¹
22,G9U G35A G59A C71U,< 1e-05 s⁻¹
23,G13C G29U C50A U56C G62C U69A,0.000141 ± 5.2e-05 s⁻¹
24,U30G A33U G35C U46C,< 1e-05 s⁻¹

row,Variant,self-cleavage kobs at 2500 uM GlcN6P
1,A12U C50G G66C C70A,5.12e-05 ± 2e-05 s⁻¹
2,C8A G29C A42G U45C U46G,< 1e-05 s⁻¹
3,A15U C16G C58A,0.000131 ± 2.8e-05 s⁻¹
4,G21U G29C A42G,0.000483 ± 0.00016 s⁻¹
5,U31C U45A U57C,4.12e-05 ± 1.4e-05 s⁻¹
6,A12G U56C C67U,< 1e-05 s⁻¹
7,A14C G43C G51A U56G,< 1e-05 s⁻¹
8,A33C A36U G37A U47C,< 1e-05 s⁻¹
9,U47A U57C,0.000104 ± 2.6e-05 s⁻¹
10,A6C A15U G43U U54G,< 1e-05 s⁻¹
11,A14C G26U G62U C68U,< 1e-05 s⁻¹
12,A12G C16G C68G,0.00102 ± 0.0005 s⁻¹
13,C10A G40U U47G U49C U55A,< 1e-05 s⁻¹
14,C11U U31C G32A A64U,< 1e-05 s⁻¹
15,A15U A33U G62A,< 1e-05 s⁻¹
16,A14G A53G G66A,0.0162 ± 0.0057 s⁻¹
17,G7U C16A U30C A52U G60U C71G,< 1e-05 s⁻¹
18,C11A A12U G35U C50G,0.000171 ± 4.2e-05 s⁻¹
19,C34G A42C G63C U65G,< 1e-05 s⁻¹
20,C16A U30A U65A,5.07e-05 ± 1.8e-05 s⁻¹
21,A15U C61U G62U,< 1e-05 s⁻¹
22,A6C A48U C61U C70G,< 1e-05 s⁻¹
23,C10U G29C A36G G41U U54A,< 1e-05 s⁻¹
24,G9C G38C C67U,< 1e-05 s⁻¹

row,Variant,self-cleavage kobs at 2500 uM GlcN6P
1,C10A C16G U31C G37C C58A G59U,< 1e-05 s⁻¹
2,C10U G43A C50U G51C,< 1e-05 s⁻¹
3,A33U G37C G38C G43A G51A,< 1e-05 s⁻¹
4,A15U G40U U49A G60U,< 1e-05 s⁻¹
5,C10A G40A U55A,< 1e-05 s⁻¹
6,A33U G35C C67G,< 1e-05 s⁻¹
7,G40C U54G G66A,0.00142 ± 0.00027 s⁻¹
8,A15C G38A C67U,< 1e-05 s⁻¹
9,G9A A14G A33C G38U U57A,< 1e-05 s⁻¹
10,G13C A15C G32U G44A G59U,< 1e-05 s⁻¹
11,U31C G35U A48U U49G U57C,< 1e-05 s⁻¹
12,A15U A36G A39U,< 1e-05 s⁻¹
13,A12U U57C C71G,0.000242 ± 0.00011 s⁻¹
14,U46A A48U G51C,< 1e-05 s⁻¹
15,C11G C34A G37U,< 1e-05 s⁻¹
16,C8G G29U U69G,< 1e-05 s⁻¹
17,G40A G62U C70G,< 1e-05 s⁻¹
18,C16A G38A U55A,< 1e-05 s⁻¹
19,A12C U31G G32A,0.000161 ± 5.6e-05 s⁻¹
20,G44A A53U U54C,0.000119 ± 4.8e-05 s⁻¹
21,G29A U69C C70U,5.97e-05 ± 1.6e-05 s⁻¹
22,A12G A39U U47G,8.38e-05 ± 1.6e-05 s⁻¹
23,A12C G41A G63A,< 1e-05 s⁻¹
24,A36U G43C A53C C71G,< 1e-05 s⁻¹

row,Variant,self-cleavage kobs at 2500 uM GlcN6P
1,G7U G9C U57A G60C,< 1e-05 s⁻¹
2,A33G A53C C58A,< 1e-05 s⁻¹
3,C34A A48C A64U,< 1e-05 s⁻¹
4,A12G U45A C70G,0.000143 ± 3.9e-05 s⁻¹
5,A12C U55A U69C,0.000484 ± 0.00011 s⁻¹
6,A6U C11U C34G G40A A52G G60A C71A,< 1e-05 s⁻¹
7,A36G A39U G62U,< 1e-05 s⁻¹
8,U30G U55C U65A C71U,8.23e-05 ± 1.7e-05 s⁻¹
9,C16U U57A C70A,8.78e-05 ± 3.6e-05 s⁻¹
10,C10U G29U A33G A39C U55G C70G,< 1e-05 s⁻¹
11,C10A C11A G38C G41A,< 1e-05 s⁻¹
12,A6G G9C G63C A64U,< 1e-05 s⁻¹
13,U49C G63U G66C,< 1e-05 s⁻¹
14,C8A U45G U57A,< 1e-05 s⁻¹
15,A39C U47C U65A,9.45e-05 ± 3.8e-05 s⁻¹
16,C34A G35U G59U,< 1e-05 s⁻¹
17,A12C A15C A39G A64G C70U,< 1e-05 s⁻¹
18,U30C A36U A48C,< 1e-05 s⁻¹
19,G43U U56C C67G,< 1e-05 s⁻¹
20,A15C C16U U17A C70G,7.4e-05 ± 1.7e-05 s⁻¹
21,A6U C10A C11G G35U,< 1e-05 s⁻¹
22,A14C G37C G62C,< 1e-05 s⁻¹
23,A15G G35C G37U G43C,< 1e-05 s⁻¹
24,G13U G35A C67A,< 1e-05 s⁻¹

row,Variant,self-cleavage kobs at 2500 uM GlcN6P
1,C61U G63C C71U,< 1e-05 s⁻¹
2,U30A G51A C61U,< 1e-05 s⁻¹
3,A39C U56C U65G,8.8e-05 ± 1.3e-05 s⁻¹
4,C8A G29C G37C A39U G43A U45G G51A,< 1e-05 s⁻¹
5,U30G G59C U65G,< 1e-05 s⁻¹
6,G32C G37C U55C U65G,< 1e-05 s⁻¹
7,C10G A12C G44A C68U,< 1e-05 s⁻¹
8,A15U A39U U69C,0.000466 ± 0.00018 s⁻¹
9,C10A G63A C71U,< 1e-05 s⁻¹
10,C8U G37U A39C,< 1e-05 s⁻¹
11,U30G G62A A64U C71U,< 1e-05 s⁻¹
12,G59A U69C C70U,< 1e-05 s⁻¹
13,G9C U30A G44U G59U C61U G66C C70U,< 1e-05 s⁻¹
14,A36G G40C C61U G63C A64C,< 1e-05 s⁻¹
15,G13A G32U A39U,4.61e-05 ± 8.8e-06 s⁻¹
16,G7U G35U U45A A53C,< 1e-05 s⁻¹
17,G40U U54G C70G C71A,6.39e-05 ± 1.8e-05 s⁻¹
18,U31A G41U C70U,0.00307 ± 0.00088 s⁻¹
19,C8U A15C G63C,< 1e-05 s⁻¹
20,G9U G41U G60U C70U,< 1e-05 s⁻¹
21,U45G A64U C68U,< 1e-05 s⁻¹
22,U49C C68U,< 1e-05 s⁻¹
23,C16U U46G U55C,0.00261 ± 0.00068 s⁻¹
24,C11U U31G A53C,0.000433 ± 0.0001 s⁻¹

row,Variant,self-cleavage kobs at 2500 uM GlcN6P
1,C16G G37A A48G G60A U65G C67U,< 1e-05 s⁻¹
2,A36U U45G C61G,< 1e-05 s⁻¹
3,A52U C61G G63C G66A,< 1e-05 s⁻¹
4,C11U A15C G41U G60U,< 1e-05 s⁻¹
5,G35C G38U G43U,< 1e-05 s⁻¹
6,A15C G60A G62U,< 1e-05 s⁻¹
7,G9U C10U C34U A53U G63U,< 1e-05 s⁻¹
8,U57A C61G C70G,3.93e-05 ± 1.9e-05 s⁻¹
9,G38A C50G U57C,0.000163 ± 6.6e-05 s⁻¹
10,G7C A53U U54G,< 1e-05 s⁻¹
11,C8A C11U C34G G38A,< 1e-05 s⁻¹
12,A14G G51C G62C U65A C68G C70A,< 1e-05 s⁻¹
13,A14U U30C A53C,< 1e-05 s⁻¹
14,A14U A15U U56A G59C G63C,< 1e-05 s⁻¹
15,A6U C11G G44C C68G,< 1e-05 s⁻¹
16,C10U A12U A53U,4.13e-05 ± 1.7e-05 s⁻¹
17,C11U G60U C68A,< 1e-05 s⁻¹
18,G32A G60A U65C,< 1e-05 s⁻¹
19,C8U A15C C71G,< 1e-05 s⁻¹
20,G7C C8G G40C,< 1e-05 s⁻¹
21,G13U A42C C71G,< 1e-05 s⁻¹
22,G7C A48U A64U C67U,< 1e-05 s⁻¹
23,U31G G41A U54C,6.89e-05 ± 2.6e-05 s⁻¹
24,A52G U54C C70U C71G,7e-05 ± 2.3e-05 s⁻¹

row,Variant,self-cleavage kobs at 2500 uM GlcN6P
1,A14C C50A A53U C70G,4.72e-05 ± 2e-05 s⁻¹
2,A36G G40C G60C,< 1e-05 s⁻¹
3,G51C G63A C68A,< 1e-05 s⁻¹
4,A6U G37C A64G,< 1e-05 s⁻¹
5,G37C G44A G51U G59C,< 1e-05 s⁻¹
6,A12C A15C A48G,< 1e-05 s⁻¹
7,G37U A52U C71U,< 1e-05 s⁻¹
8,G38A G41A C50G C61U,< 1e-05 s⁻¹
9,C8G A14G U55G C58U U65G,< 1e-05 s⁻¹
10,U54G C68U C70U,0.00037 ± 6.8e-05 s⁻¹
11,C8G A15C A36G,< 1e-05 s⁻¹
12,G26U G29U U55A C70A,8.18e-05 ± 2.7e-05 s⁻¹
13,C11G A15G G59U,9.06e-05 ± 3.1e-05 s⁻¹
14,G9C A33C G38C A39C U65G,< 1e-05 s⁻¹
15,C8A G35C A53U G60A,< 1e-05 s⁻¹
16,G43C G51C U65A,< 1e-05 s⁻¹
17,C50G C58G G62C,0.000553 ± 0.00021 s⁻¹
18,A14U G40A G43A U45G,0.000402 ± 8.4e-05 s⁻¹
19,C8U A15G G43A,< 1e-05 s⁻¹

# Variants of: B1
# Assay: self-cleavage kobs at 10000 uM GlcN6P; higher = faster cleavage; RNA array
# Conditions: with glucosamine-6-phosphate
# Method in brief: as §1
row,Variant,self-cleavage kobs at 10000 uM GlcN6P
1,A14U U65A U69C,0.000191 ± 3.3e-05 s⁻¹
2,A36U G38A U47C,< 1e-05 s⁻¹
3,C8A G29C A42G U45C U46G,< 1e-05 s⁻¹
4,A14C G43C G51A U56G,< 1e-05 s⁻¹
5,U47A U57C,0.000159 ± 2.5e-05 s⁻¹
6,A15U A36G A39U,< 1e-05 s⁻¹
7,G44A A53U U54C,0.000211 ± 6.8e-05 s⁻¹
8,G29A U69C C70U,7.72e-05 ± 1.5e-05 s⁻¹
9,U30A G51A C61U,< 1e-05 s⁻¹
